What all share (assay type): cell-based, human
Series [1] relates to LRRK2 genomic locus. Description: Junction PCR and sequencing of clonal A549 cells, N-terminal tagging of LRRK2. Here is the method: (§1) 293FT or A549 cells were maintained in DMEM medium supplemented with 10% FBS. On the day of transfection, cells were detached from the culture flask and counted. For each electroporation, 1.5 μg of Cas9 protein and 360 ng of gRNA were added to Resuspension Buffer R to a final volume of 7 μl, but the total volume of Cas9 protein plus gRNA added was less than 1 μl. Upon mixing, the sample was incubated at room temperature for 5 to 10 minutes to form Cas9 RNPs complex. Meanwhile, aliquots of 1×10^6 cells were washed once with DPBS without Ca^2+ and Mg^2+ and the cell pellets were resuspended in 50 μl of Resuspension Buffer R. A 5 μl aliquot of cell suspension was then mixed with 7 μl of Cas9 RNPs, followed by addition of 1 μl indicated amount of donor DNA. 10 μl of cell suspension containing Cas9 RNP and donor was applied to NEON® electroporation (Thermo Fisher Scientific, cat. no. MPK5000) with voltage set at 1150V, pulse width set at 20 ms, and the number of pulses set at 2, respectively. The electroporated cells were transferred to a 48-well plate containing 0.5 ml culture media. Samples without either gRNA or donor DNA served as controls. At 48 hours post transfection, the cells were analyzed by flow cytometry. Alternatively, the genomic loci were PCR-amplified with the corresponding primers. The resulting PCR fragments were analyzed using the GENEART® Genomic Cleavage Detection assay. The edited cells were further subjected to limiting dilution, followed by clonal cell isolation. The clonal cells were characterized by PCR amplification of both the N- and C-terminal junctions and sequencing. The sequencing data were analyzed using VECTOR NTI ADVANCE® 11.5 software (Thermo Fisher Scientific).
Besides beta-actin, we also evaluated a different protein in a different cell line. LRRK2 protein is related to Parkinson's disease with a molecular weight of approximately 280 kd. A gRNA was designed to target the LRRK2 genomic locus near the start codon. Approximately 35 nt homology arms were added to a sequence-verified promoterless puromycin-P2A-EmGFP DNA fragment via PCR amplification. The Cas9 RNP and donor DNA were co-delivered into A549 cells via NEON® electroporation using 1050 volts, 30 milliseconds and 2 pulses. Because LRRK2 is relatively low abundant protein, we were not able to detect EmGFP signal inside the cells. […] To examine the integration efficiency, the cells were treated with 0.75 μg/ml puromycin for 7 days at 48 hours post transfection, followed by limiting dilution and clonal cell isolation. The junctions were analyzed by PCR using one inner primer and one outer primer, or a pair of outer primers. The resulting PCR products were analyzed by sequencing to determine the precision of integration. […]

In series [2] the test system is beta-actin locus. Description: Junction PCR and sequencing of clonal 293FT cells, integration at beta-actin locus. How it is done:
as §1
To examine the identity of integration sites, cells transfected with Cas9 RNP and donor DNA were subjected to puromycin selection, limiting dilution, and clonal cell isolation. A total of 48 colonies were randomly picked for junction PCR analysis. […] All the other 47 colonies gave rise to PCR products for both N- and C-terminal junctions when one outer primer and one inner primer were used. The PCR product was also observed when a pair of outer primers was used with the size of about 420 bp, which corresponded to the genomic DNA fragment without an insert. The reason why a large PCR product containing the insert was not observed was because the smaller DNA fragment without the insert was preferentially amplified. […] The other 18% of clonal cells also contained the insert but had mutations at the junction areas (FIG. 3A(2)). Most of the mutations were deletion and insertion. Sometimes a duplicate sequence of a partial or full-length homology arm was inserted at the junction. At the C-terminal junction, approximately 78% of the clonal cells harbored precise HDR (FIG. 3B(1)) whereas the other 22% of cells had Indel formation at the junction (FIG. 3B(2)). Rarely, a relatively large piece of donor DNA (up to 165 nt) was deleted at the C-terminal junction. Overall, all the clonal cells contained one copy of donor DNA at the right genomic locus in one of the alleles with 68% of cells harbored precise HDR at both N- and C-termini and 32% of cells harbored imperfect HDR at either N- or C-terminus or both. […] Instead, approximately 80% of the clones had one “A” insertion at the Cas9 cleavage site and 20% of the clones harbored more than 2 nt deletion. Only one wild type clone was detected at the second allele (FIG. 3C). Most of the clones expressed both wild type beta-actin and OFP fusion of beta-actin as confirmed by Western Blot analysis.
To characterize each clonal cell in the stable pool, we performed limiting dilution and clonal cell isolation. The junctions of integration were analyzed by PCR and sequencing. As depicted in FIGS. 8B and 8C, approximately 88% of clonal cells harbored precise integration at N-terminal junction whereas 12% of clonal cells had some extra sequences inserted at the junction. […]

The subject of series [3] is genomic locus of beta-actin. Description: OFP-positive cells by flow cytometry after electroporation of Cas9 RNP and donor DNA into 293FT cells. How it is done: as §1
To evaluate the strategy of tagging endogenous protein, we fused the OFP gene to the N-terminus of beta-actin. Beta-actin is one of the most abundant proteins in eukaryotes, so it is easy to monitor using fluorescence microscopy. A gRNA was designed and synthesized to target the genomic locus of beta-actin near the ATG start codon (Table 12) and then complexed with Cas9 nuclease to form RNPs. The relevant 35 nt homology arms were added to a sequence-verified promoterless puromycin-P2A-OFP DNA fragment by PCR amplification. The resulting donor PCR fragments were purified using PureLink™ PCR Purification Kit and then concentrated using a speed-vac to a final concentration of around 1 μg/μl. To examine the effect of donor dosage on HDR efficient, we kept the amount of Cas9 RNP constant and varied the amount of donor DNA. The Cas9 RNP and donor DNA were transfected into 293 FT via electroporation. At 48 hours post transfection, the cells were analyzed by fluorescence microscope. When the cells were transfected with Cas9 RNP alone or Cas9 protein with donor DNA, no OFP-positive cells were detected, whereas OFP-positive cells were observed when cells were transfected with Cas9 RNP and donor DNA. The percentages of OFP-positive cells were determined by flow cytometric analysis. Without selection, the percentage of OFP-positive cells increased from approximately 5% to 20% when the amount of donor DNA increased from 25 ng to 500 ng (FIG. 2A). The optimal amount of donor DNA was around 500 ng per reaction. On the other hand, after treatment of transfected cells with 1 μg/ml puromycin for 7 days, approximately 80% of cells were OFP-positive. There was no significant difference in the percentage of OFP-positive cells between different amounts of donor DNA (FIG. 2A). Next, we examined the effect of homology arm length on HDR efficiency. Various lengths of homology arms were added to the promoterless puromycin-P2A-OFP DNA fragment by PCR amplification. As depicted in FIG. 2B, when the homology arm length increased from 12 nt to 80 nt, the percentage of OFP-positive cells increased and then plateaued at around 35 nt.
Traditionally, a plasmid donor was used to incorporate large DNA molecules into the genome. […]
In general terms: A flow cytometer gives signals particle by particle.

The mark [4] stands for this setting: LRRK2, N-terminus, A549 clonal cells.
Setting [5] is: Beta-actin, N-terminus, 293FT clonal cells.

Where “and” joins values, the source holds several entries; their conditions need not be identical. Identical values can stand only once. Marks after values point to notes of the source that are not given here.

In the case of “puromycin-P2A-EmGFP: donor DNA, 1.4 kb: promoterless puromycin-P2A-EmGFP fragment with approximately 35 nt homology arms to LRRK2 locus”, in series [1] (setting [4]), the “Efficiency at allele 1 HDR/Indel” value is 0% and the “Efficiency at allele 1 Precise HDR” value is on record as 100%. Also, the “Efficiency at allele 2 No HDR/Indel” value in series [1] (LRRK2, N-terminus, A549 clonal cells, 7 nt deletion) worked out at 80%. Besides, the integration efficiency in series [1] (all 86 colonies contained at least one copy of the insert) was determined as 100%.

B1: puromycin-P2A-OFP: donor DNA, 1.4 kb: promoterless puromycin-P2A-OFP fragment with 35 nt homology arms to the beta-actin locus (nucleic acid)
DNA: CACAGCGCGCCCGGCTATTCTCGCAGCTCACCATGACCGAGTACAAGCCCACAGTGCGGCTGGCCACCAGGGACGATGTGCCTAGAGCTGTGCGGACACTGGCCGCTGCCTTCGCCGATTACCCTGCCACCAGACACACCGTGGACCCCGACAGACACATCGAGAGAGTGACCGAGCTGCAGGAACTGTTTCTGACCAGAGTGGGCCTGGACATCGGCAAAGTGTGGGTGGCCGATGATGGCGCCGCTGTGGCTGTGTGGACAACCCCTGAGTCTGTGGAAGCCGGCGCTGTGTTCGCCGAGATCGGACCTAGAATGGCCGAGCTGAGCGGCTCTAGACTGGCTGCCCAGCAGCAGATGGAAGGCCTGCTGGCCCCCCACAGACCTAAAGAGCCTGCCTGGTTTCTGGCCACCGTGGGCGTGTCACCTGACCACCAGGGCAAGGGACTGGGATCTGCTGTGGTGCTGCCTGGCGTGGAAGCTGCTGAAAGGGCTGGCGTGCCCGCCTTCCTGGAAACAAGCGCCCCCAGAAACCTGCCCTTCTACGAGAGACTGGGCTTCACCGTGACCGCCGACGTGGAAGTGCCTGAGGGCCCTAGAACCTGGTGCATGACCAGAAAGCCTGGCGCCGGAAGCGGAGCTACTAACTTCAGCCTGCTGAAGCAGGCTGGAGACGTGGAGGAGAACCCTGGACCTAACCTGAGCAAAAACGTGAGCGTGAGCGTGTATATGAAGGGGAACGTCAACAATCATGAGTTTGAGTACGACGGGGAAGGTGGTGGTGATCCTTATACAGGTAAATATTCCATGAAGATGACGCTACGTGGTCAAAATTCCCTACCCTTTTCCTATGATATCATTACCACGGCATTTCAGTATGGTTTCCGCGTATTTACAAAATACCCTGAGGGAATTGTTGACTATTTTAAGGATTCGCTTCCCGACGCATTCCAGTGGAACAGACGAATTGTGTTTGAAGATGGTGGAGTACTAAACATGAGCAGTGATATCACATATAAAGATAATGTTCTGCATGGTGACGTCAAGGCTGAGGGAGTGAACTTCCCGCCGAATGGGCCAGTGATGAAGAATGAAATTGTGATGGAGGAACCGACTGAAGAAACATTTACTCCAAAAAACGGGGTTCTTGTTGGCTTTTGTCCCAAAGCGTACTTACTTAAAGATGGTTCCTATTACTATGGAAATATGACAACATTTTACAGATCCAAGAAATCTGGCCAGGCACCTCCTGGGTATCACTTTGTTAAGCATCGTCTCGTCAAGACCAATGTGGGACATGGATTTAAGACGGTTGAGCAGACTGAATATGCCACTGCTCATGTCAGTGATCTTCCCAAATTCGAAGCTGATGATGATATCGCCGCGCTCGTCGTCGACAACGG
modifications: misc_feature 1..1402 Description of Unknown: Beta Actin sequence
notes: donor DNA, 1.4 kb: promoterless puromycin-P2A-OFP fragment with 35 nt homology arms to the beta-actin locus
In the case of B1, in series [2] (setting [5]), the “Efficiency at allele 1 HDR/Indel” value is 32%, the “Efficiency at allele 2 No HDR/Indel” value was determined as 100% and the “Efficiency at allele 2 Precise HDR” value is 0%. Moreover, in series [2] (beta-actin locus, 293FT), the “clonal cells with Indel formation / small mutations at the C-terminal junction” value was 22%, the “clonal cells with mutations or extra sequences at the N-terminal junction” value was determined as 18%, the “clonal cells with precise HDR / correct junction at the C-terminal junction” value is on record as “approximately 78%” and the “clonal cells with precise HDR at the N-terminal junction” value was “approximately 82%”. For the same molecule, the “clones wild type (wt)” value in series [2] (second allele) is 2%. Moreover, in series [2] (second allele (no insert)), the “clones with more than 2 nt deletion” value was 18% and 20%; the “clones with one 'A' insertion at the Cas9 cleavage site” value was “approximately 80%”. In addition, the “percentage of OFP-positive cells” value in series [3] (after 1 μg/ml puromycin for 7 days) is “approximately 80%”. Also, the “% of functional Cells” value in series [3] (determined by flow cytometry) amounted to 80%^a. The “homology arm length at which percentage of OFP-positive cells plateaued” value in series [3] (homology arm length 12 nt to 80 nt) is listed as “around 35 nt”. Moreover, the “optimal amount of donor DNA” value in series [3] (without selection) is given as “around 500 ng per reaction”. For the same molecule, the “percentage of OFP-positive cells” value in series [3] (without selection, 25 ng donor DNA, 48 hours post transfection) was “approximately 5%”. The “percentage of OFP-positive cells” value in series [3] (without selection, 500 ng donor DNA, 48 hours post transfection) is about 20%.

(Values after patent US12612650B2, “Methods for improved homologous recombination and compositions thereof” (LIFE TECHNOLOGIES CORPORATION, priority 2017, dated 2026).)
